“Also recorded” adds a separate entry of the source.
Columns and labels:
Type in all cases: physicochemical
[1] = Phase diagrams / liquid-liquid phase separation (turbidity at 500 nm, optical and confocal microscopy); settings: 0.2 M NaCl; for liquid-liquid phase separation (LLPS) / droplet formation, in words: as a function of peptide concentration and pH; for peptide concentration at which phase separation is observed: pH increased until turbidity appeared
Procedure: 150 μl of 5, 10, 20 and 30 mM peptide solutions were prepared in 20 mM of the suitable buffer (citrate buffer for a pH range of 3-6, tris buffer for pH range of 7-9 and ammonium bicarbonate to a pH range of 9-12) with 0.2 M NaCl. The pH was increased gradually until a turbidity appeared and measured as described below. The turbidity of 35 μl was measured in triplicates at λ=500 nm. This process repeated at higher pH, the pH increased until the turbidity faded, and a sediment appeared. All experiments were performed in triplicates and the presented value is the average.
150 μl of 20 μM peptide solutions were prepared in 20 mM Tris buffer. The pH was adjusted to the desired value of 6, 7, 8, 9, 10 and 11. The turbidity of 35 μl was measured in triplicates at λ=500 nm.
All samples were imaged in a 96 Well Black Glass bottom plate, glass 1.5H (made by Hangzhou Xinyou, and purchased from Danyel Biotech) 10 minutes after preparation. The images were taken by Zeiss Zen 900 confocal microscope with ×20/0.8 NA Plan-Apochromat air objective. The light microscopy images were taken at PMT mode. PMT imaging were taken with 561 nm laser and fluorescence imaging were taken with 488, 561 and 405 nm lasers for fluorescein, rhodamine B and GFP, respectively.
A phase diagram was created by increasing the pH at various peptide concentrations until a visible turbidity occurred. The turbidity was measured as the absorbance at λ=500 nm. To confirm that the turbidity occurred as a result of coacervation rather than precipitation, we performed an optical microscopy analysis of 20 mM peptide solution at pH 8.

[2] = Fluorescence recovery after photobleaching (FRAP) of peptide droplets; settings: for apparent diffusion coefficient, comparison in words: among the four LLPS-promoting peptides; for Apparent diffusion coefficient D: droplets prepared with 0.5% FITC labeled peptide, calculated from recovery time; for mobility and dynamics of the droplets: unit not given
Procedure: FRAP experiments were performed by a Zeiss Zen 900 confocal microscope with ×20/0.8 NA Plan-Apochromat air objective. A circular area with radius of 2.5 μm was bleached with a 488 nm laser 100% intensity at 10 iterations; subsequent recovery of the bleached area was recorded with a 488 nm laser. Photobleaching correction and recovery time were calculated using OriginLab. The final FRAP recovery curve is the average of recovery curves collected from five separate droplets.
A fluorescence […] after photo bleaching (FRAP) used to evaluate the diffusion of the droplets. The droplets were prepared with 0.5% of FITC labeled peptide and were observed by confocal microscope. The apparent diffusion coefficients were calculated as followed: […]

[3] = Encapsulation efficiency of fluorescent payloads in peptide droplets; settings: 20 mM peptide, 20 mM Tris + 0.2 M NaCl, pH 8
Procedure: 1 mM Stock solutions of the fluorescein and Rhodamine B dye molecules were prepared in 20 mM Tris buffer. A 20 mM peptide coacervated solutions were prepared in 20 mM Tris+0.2 M NaCl at pH 8. A 148.5 μl of peptide solution was mixed with 1.5 μl of dye solution in a 1.5 ml Eppendorf tube and was pipetted. The 15 μl of GFP solution was added to 135 μl of peptide solution and was mixed in a 1.5 ml Eppendorf tube and was pipetted. After 10 minutes the samples were centrifuged at 15,000 rcf for 10 minutes. A volume of 120 μl from the supernatant was collected and vortexed and then the absorbance of 35 μl triplicates was measured in a 384 well black plate by Biotek H1 synergy plate reader (purchased from Lumitron, Israel). For GFP, a 7.5 μl of 20 mM Tris buffer to a 7.5 μl GFP aliquot from the purchased stock solution. The 15 μl of GFP solution was added to 135 μl of peptide solution and was mixed in a 1.5 ml Eppendorf tube and was pipetted. The concentration of GFP at the supernatant was measured via fluorescence. All experiments were performed in triplicate. The concentration of the supernatant solutions determinate by calibration curves. Imaging was made to 30 μl of uncentrifuged samples.
LLPS are widely known for the ability to encapsulate small molecules or proteins. This characteristic is important for drug delivery and to exploits coacervate as microreactors. In order to investigate the encapsulation capacity of the designed peptides two fluorescent dyes were used (fluorescein and rhodamine B) and the protein GFP. The peptides WGR-1, WGR-3, WGR-4 and WGR-5 were chosen for this experiment for their diverse chemical characteristics. The encapsulation efficiency was measured via bulk measurements and images of the droplets with the dyes were taken in a fluorescence confocal microscope.

| Sequence | liquid-liquid phase separation (LLPS) / droplet formation, in words [1] | peptide concentration at which phase separation is observed [1] [mM] | apparent diffusion coefficient, comparison in words ([2]; FRAP) | Apparent diffusion coefficient D ([2]; FRAP) [m^2 sec^−1] | encapsulation efficiency of GFP, in words [3] | apparent diffusion coefficient (D), fold larger than that of WGR-5 ([2]; FRAP, compared with WGR-5) | encapsulation efficiency of fluorescein, in words [3] | mobility and dynamics of the droplets [2] |
| --- | --- | --- | --- | --- | --- | --- | --- | --- |
| WGRGRGWPGVGY [WGR-5] | perform a phase separation at similar conditions to WGR-4 | 5 | lowest diffusion | 9.27E−15 | compromised encapsulation efficiency | – | – | – |
| WGRGRGRGWPGVG (WGRGRGRGWPGVGF) [WGR-2] | arrested phase separation; also recorded: LLPS was not observed | – | – | – | – | – | – | – |
| WGRGRGRGWPGVGF [WGR-3] | created LLPS at higher pH value comparing to WGR-1 | – | largest apparent diffusion coefficient | 5.52E−14 | lowest encapsulation efficiency | more than 5 fold | lowest encapsulation efficiency | – |
| WGKGKGKGWPGVGY | showed no visual turbidity; also recorded: LLPS was not observed | – | – | – | – | – | – | – |
| WGRGRGRGWPGVGY [WGR-1] | – | – | – | 4.518E−14 | – | – | no significant difference | 4.52E-14 |
| WGRGRGRGWY [WGR-4] | exhibit phase separation at more moderate conditions | 5 | lower diffusion coefficient than WGR-1 | 2.36E−14 | highest encapsulation efficiency | – | no significant difference | 2.36E-14 |

From patent publication US20240245613A1, “PEPTIDE LIQUID DROPLETS AND METHODS OF USING THE SAME” (RAMOT AT TEL AVIV UNIVERSITY LTD., priority 2021, published 2024)
